For assay [1], the target named is T1, His-tagged human CD47-ECD protein (CD47-His) (human, UniProt Q08722 19-139).
T1 construct: Expressed in HEK293F cells; also called CD47-His antigen
The experiment in a line: competitive ELISA on coated CD47-His (2 µg/mL); blocked ligand SIRPα-Fc-Bio (0.1 µg/mL), HRP-streptavidin, OD450; value is parameter C of the printed 4-parameter fit. (In general: ELISA stands for enzyme-linked immunosorbent assay.)

For assay [2], the target named is T1, His-tagged human CD47-ECD protein …. The experiment in a line: BLI (Fortebio), antibody on protein A sensor, CD47-His in solution.
The target of assay [3] is T2, macaque CD47-Fc (macaque, UniProt A0A2K5X523 19-141).
T2 construct: Bought reagent; not shown: Fc part of the bought fusion and any linker to it
In words: ELISA on coated macaque CD47-Fc; row printed as Affinity (µg/mL).

For assay [4], the target named is T1, His-tagged human CD47-ECD protein …. The experiment in a line: competitive ELISA on coated CD47-His (2 µg/mL); blocked ligand SIRPα-Fc-Bio (0.1 µg/mL), HRP-streptavidin, OD450; value is parameter C of the printed 4-parameter fit. The source holds these as a separate data set.
The target is the same in assay [5]. The description is as above. This is another data set of the same source.
The target of assay [6] is T3, CD47 on the cell surface (CHO-CD47 cells, Jurkat cells, Raji cells) (human, UniProt Q08722 19-323).
T3 construct: whole, on cells; One molecule is used for CD47 on CHO-CD47, Jurkat and Raji cells; also called CHO surface CD47; Jurkat cell surface CD47
In words: flow cytometry competition on CHO-CD47 cells; blocked ligand SIRPα-Fc-Bio (6.5 µg/mL), streptavidin-PE; value is parameter C of the printed 4-parameter fit. On the technique in general: A flow cytometer gives signals particle by particle.

The target in assay [7] is T3, CD47 on the cell surface (CHO-CD47 …). In words: flow cytometry on CHO-CD47 cells, goat anti-human IgG Fc-PE, PE-A mean fluorescence.
In assay [8] the target is T1, His-tagged human CD47-ECD protein …. In words: competitive ELISA on coated CD47-His (2 µg/mL); blocked ligand SIRPα-Fc-Bio (0.1 µg/mL), HRP-streptavidin, OD450; value is parameter C of the printed 4-parameter fit; inhibition is partial (A 1.373, D 0.661).
In assay [9] the target is T3, CD47 on the cell surface (CHO-CD47 …). In words: flow cytometry on Jurkat cells, goat anti-human IgG Fc-PE, PE-A mean fluorescence.

Positions count from the first letter of the chain named. Names may count otherwise.

The results in this text go back to US20230303711A1 (BIO THERA SOLUTIONS, published 2023).

T2 sequence (A0A2K5X523 entry or part of it limits assumed): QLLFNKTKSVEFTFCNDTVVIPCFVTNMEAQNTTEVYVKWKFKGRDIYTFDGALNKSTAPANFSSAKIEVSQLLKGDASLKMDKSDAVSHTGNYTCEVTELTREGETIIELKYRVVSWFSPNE

B1: Antibody 6Y-G1 (antibody, human IgG1, kappa)
heavy: not shown
light: EIVLTQSPSSLSASVGDRVTIPCRASLSIGSFLNWYQQRPGEAPKLLIFAASSLRSGVPSRFSGSGSGTDFTLTISGLQPEDFATYYCQQTYTTPYTFGQGTKVDIKRTVAAPSVFIFPPSDEQLKSGTASVVCLLNNFYPREAKVQWKVDNALQSGNSQESVTEQDSKDSTYSLSSTLTLSKADYEKHKVYACEVTHQGLSSPVTKSFNRGEC
notes: also called Antibody L12-6; L12-6
Usually IC50 stands for the concentration that gives 50% inhibition. Read a high IC50 as weaker potency in that assay. A word on the Kd: it is the concentration at which binding is half-saturated. Higher therefore signals a looser complex. By EC50 is commonly meant the midpoint of the concentration-response curve. High values mean a need for much substance, low ones an effect from little substance. In the case of B1, the IC50 in [1] was 0.913 µg/mL. This molecule also gave a Kd in assay [2] of 0.142 nM. The same molecule yielded an EC50 in assay [3] of 0.083 µg/mL.

B2: Antibody 6Y-G4 (antibody, human IgG4 S228P, kappa)
heavy: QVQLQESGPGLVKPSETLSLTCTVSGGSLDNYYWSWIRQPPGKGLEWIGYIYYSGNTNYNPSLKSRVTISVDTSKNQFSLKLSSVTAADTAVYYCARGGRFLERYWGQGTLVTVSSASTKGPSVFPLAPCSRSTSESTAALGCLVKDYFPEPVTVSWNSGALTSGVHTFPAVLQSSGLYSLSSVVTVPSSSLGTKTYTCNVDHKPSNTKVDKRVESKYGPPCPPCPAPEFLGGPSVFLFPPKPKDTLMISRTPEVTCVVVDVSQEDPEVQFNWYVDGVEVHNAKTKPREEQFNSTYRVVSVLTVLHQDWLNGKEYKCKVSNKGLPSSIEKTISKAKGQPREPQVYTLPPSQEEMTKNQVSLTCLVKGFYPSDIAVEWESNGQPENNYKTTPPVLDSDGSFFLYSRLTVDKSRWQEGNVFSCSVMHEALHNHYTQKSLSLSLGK
light: B1 light
notes: IgG4P (S228P) form of 6Y-G1
B2: in assay [1], the IC50 was found to be 0.763 µg/mL. This molecule showed an EC50 in assay [3] of 0.11 µg/mL.

B3: Antibody L24 (antibody, human IgG1, kappa)
heavy: not shown
light: B1 light with E1D, V3Q, L4M, G77S, D105E
notes: Full-length IgG1
The molecule B3 registered an IC50 in [4] of 1.09 µg/mL.

B4: Antibody L12 (antibody, human IgG1, kappa)
heavy: not shown
light: B1 light
notes: Full-length IgG1
B4: in [2], the Kd was 0.112 nM. The same molecule gave an EC50 in assay [3] of 0.066 µg/mL. This molecule also returned an IC50 in [5] of 1.18 µg/mL.

B5: Antibody L5 (antibody, human IgG1, kappa)
heavy: not shown
light: B1 light with Q100P, K103R, V104L, D105E
notes: Full-length IgG1
Regarding B5, the IC50 in assay [4] came out at 1.02 µg/mL.

B6: Antibody L26 (antibody, human IgG1, kappa)
heavy: not shown
light: B1 light with G77S, V104L, D105E
notes: Full-length IgG1
In [4], B6 showed an IC50 of 1.02 µg/mL.

B7: Antibody 17-ScFv (scFv)
scFv: QVQLQESGPGLVKPSETLSLTCTVSGGSLDNYYWSWIRQPPGKGLEWIGYIYYSGNTNYNPSLKSRVTISVDTSKNQFSLRLRSVTAADTAVYYCARGGRFLERYWGQGTLVTVSSGGGGSGGGGSGGGGSDIQMTQSPSSVSASVGDRVTISCRANQAIGTWLAWYQQKPGKAPKLLIYAASTLQSGVPSRFSGSGSGTEFTLTISSLQAEDVAVYYCQQYYTTPLTFGGGTKLEIK
notes: VH C-terminus linked to VL N-terminus; Purified on a protein A column and detected with anti-human IgG Fc-PE, but no Fc or tag is described for it
For orientation: EC50 (read off the curve) means the concentration giving half of the maximal effect. For B7, the IC50 in [6] is 15.1 µg/mL; in assay [8] it was 0.936 µg/mL. The “EC50 (read off the curve)” value in [7] and in assay [9] was ~1 µg/mL in each case.

B8: Antibody 17 (antibody, human IgG1, kappa, V domains shown)
VH: QVQLQESGPGLVKPSETLSLTCTVSGGSLDNYYWSWIRQPPGKGLEWIGYIYYSGNTNYNPSLKSRVTISVDTSKNQFSLRLRSVTAADTAVYYCARGGRFLERYWGQGTLVTVSS
VL: DIQMTQSPSSVSASVGDRVTISCRANQAIGTWLAWYQQKPGKAPKLLIYAASTLQSGVPSRFSGSGSGTEFTLTISSLQAEDVAVYYCQQYYTTPLTFGGGTKLEIKR
notes: Full-length IgG1
Regarding B8, in assay [4], the IC50 turned out to be 0.795 µg/mL. Besides, the EC50 in assay [3] was found to be 0.064 µg/mL.
